Substrate in this data set: Nc1ncnc2c1ncn2[C@@H]1O[C@H](COP(=O)(O)OP(=O)(O)OP(=O)(O)O)[C@@H](O)[C@H]1O
The data set is described as follows: single-molecule magnetic trapping, stalled RNAP dissociation lifetime versus [ATP]. The class given is biochemical, Escherichia coli. The following applies: saturating RapA, RNAP stalled at +20 on positively supercoiled DNA, 0.3 pN, 200 μM GTP and UTP, 8 mM MgCl2, pH 8.0, 34°C, kcat is RNAP dissociation rate at saturating RapA and ATP, not ATP hydrolysis.

B1: RapA-RNAP complex (Escherichia coli K-12) (protein)
chain: PFTLGQRWISDTESELGLGTVVAVDARTVTLLFPSTGENRLYARSDSPVTRVMFNPGDTITSHDGWQMQVEEVKEENGLLTYIGTRLDTEESGVALREVFLDSKLVFSKPQDRLFAGQIDRMDRFALRYRARKYSSEQFRMPYSGLRGQRTSLIPHQLNIAHDVGRRHAPRVLLADEVGLGKTIEAGMILHQQLLSGAAERVLIIVPETLQHQWLVEMLRRFNLRFALFDDERYAEAQHDAYNPFDTEQLVICSLDFARRSKQRLEHLCEAEWDLLVVDEAHHLVWSEDAPSREYQAIEQLAEHVPGVLLLTATPEQLGMESHFARLRLLDPNRFHDFAQFVEEQKNYRPVADAVAMLLAGNKLSNDELNMLGEMIGEQDIEPLLQAANSDSEDAQSARQELVSMLMDRHGTSRVLFRNTRNGVKGFPKRELHTIKLPLPTQYQTAIKVSGIMGARKSAEDRARDMLYPERIYQEFEGDNATWWNFDPRVEWLMGYLTSHRSQKVLVICAKAATALQLEQVLREREGIRAAVFHEGMSIIERDRAAAWFAEEDTGAQVLLCSEIGSEGRNFQFASHMVMFDLPFNPDLLEQRIGRLDRIGQAHDIQIHVPYLEKTAQSVLVRWYHEGLDAFEHTCPTGRTIYDSVYNDLINYLASPDQTEGFDDLIKNCREQHEALKAQLEQGRDRLLEIHSNGGEKAQALAESIEEQDDDTNLIAFAMNLFDIIGINQDDRGDNMIVLTPSDHMLVPDFPGLSEDGITITFDREVALAREDAQFITWEHPLIRNGLDLILSGDTGSSTISLLKNKALPVGTLLVELIYVVEAQAPKQLQLNRFLPPTPVRMLLDKNGNNLAAQVEFETFNRQLNAVNRHTGSKLVNAVQQDVHAILQLGEAQIEKSARALIDAARNEADEKLSAELSRLEALRAVNPNIRDDELTAIESNRQQVMESLDQAGWRLDALRLIVVTHQ
notes: full-length RapA, N-terminal His6 tag (pQE80L, expressed in BL21(DE3)), 110 kDa; RNAP core saturated with sigma70 (rpoD) for initiation, then stalled as elongation complex on DNA; with DNA-directed RNA polymerase subunit alpha; DNA-directed RNA polymerase subunit beta; DNA-directed RNA polymerase subunit beta'; DNA-directed RNA polymerase subunit omega
Consider B1, for which the Km is 160 ± 35 µM and the kcat is listed as 1.1 × 10^–3 ± 0.5 × 10^–5 s^–1.
